Patent US20030091565A1 (Human Genome Sciences, published 2003)
No end group written: not given here.

Tests used:
[1] = target: T1, B lymphocyte stimulator protein (BLyS), recombinant (human, UniProt Q9Y275 134-285, limits assumed, biotinylated in the phage screening and phage ELISA; unlabeled in fluorescence anisotropy); assay: fluorescence anisotropy
T1 construct: also called biotinylated BLyS; b-BLyS
Protocol: Dissociation constants between the synthetic peptides and BLyS (free in solution) were measured by fluorescence anisotropy (FA). In these experiments, the concentration of the fluorescein-labeled peptide is held constant and the BLyS protein concentration was varied. The observed change in anisotropy is fit to the following equation via nonlinear regression to obtain the apparent KD.
Binding reactions containing 50 nM fluorescein-labeled peptide and a varied concentration of BLyS in a volume between 10 and 20 μL per well were performed in 384 well microplates. Reactions were assayed using a Tecan Polarion fluorescence polarization plate reader. Cross-competition studies between peptides were performed using 50 nM fluorescein-labeled peptide and 1-2 μM BLyS in the presence and absence of 100 μM unlabeled peptide. […] Other buffers in which dissociation constants of BLyS Binding polypeptides were detremined include: [pH 6.0, 0.01% Tween], [pH 6.0, 0.1% gelatin], [pH5.0, 0.01% Tween], [pH9.0, 0.1% Tween], [pH6.0, 15% ethylene glycol, 0.01 % Tween], ], [pH5.0, 15% ethylene glycol, 0.01 % Tween], and [pH9.0, 15% ethylene glycol, 0.01 % Tween].

[2] = target: T1, B lymphocyte stimulator protein (BLyS), …; assay: not stated there
[3] = target: T1, B lymphocyte stimulator protein (BLyS), …; assay: not stated there (fluorescence anisotropy elsewhere)

T1 sequence (Q9Y275 134-285 limits assumed): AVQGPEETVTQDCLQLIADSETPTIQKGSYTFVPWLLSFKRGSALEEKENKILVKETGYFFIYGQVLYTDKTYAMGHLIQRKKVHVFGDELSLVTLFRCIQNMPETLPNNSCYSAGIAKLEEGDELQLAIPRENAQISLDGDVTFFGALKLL

B1: DX876 (peptide)
peptide: Ac-WYDPLTKLWLGGK(fitc)
notes: 10-mer core (positions 3-12 of the 14-mer) with GGK linker
Work on B1 yielded a Kd [1] of 171 nM.

VPFCDLLTKHCFEA (on M13 phage; also called TN8-01-B07) [453-01-B07] gave a Kd [2] of 700 nM.

Ac-WTDSLTGLWFPDGGPGPEGGGK [DX221] showed a Kd [3] of 3000 nM.
